Columns and labels:
[1] = molecular target: the molecule itself; test: SEC; HiLoad 16/600 Superdex 200, solution B (20 mM HEPES pH 7.5, 100 mM NaCl, 0.5 mM TCEP), 4 °C; proteins prepared without ammonium sulfate treatment (bound nucleic acids kept); loads 25-70 µM
[2] = molecular target: the molecule itself; test: dynamic light scattering; ~20 µM, 25 °C, 20 mM HEPES pH 7.5, 100 mM NaCl, 1 mM TCEP; Arc^WT was ammonium sulfate-treated (nucleotide-free)

B1: Arc ΔH1 (aa 33–70 deleted) (natural protein, mouse, UniProt Q9WV31 1-396, looked up)
chain: MELDHMTTGGLHAYPAPRGGPAAKPNVILQIGLENNLDGYVPTGDSQRWKKSIKACLCRCQETIANLERWVKREMHVWREVFYRLERWADRLESMGGKYPVGSEPARHTVSVGVGGPEPYCQEADGYDYTVSPYAITPPPAAGELPEQESVEAQQYQSWGPGEDGQPSPGVDTQIFEDPREFLSHLEEYLRQVGGSEEYWLSQIQNHMNGPAKKWWEFKQGSVKNWVEFKKEFLQYSEGTLSREAIQRELELPQKQGEPLDQFLWRKRDLYQTLYVDAEEEEIIQYVVGTLQPKLKRFLRHPLPKTLEQLIQRGMEVQDGLEQAAEPSGTPLPTEDETEALTPALTSESVASDRTQPE
notes: Arc (Arg3.1), mouse, lacking helix H1 (residues 33-70); Made by PCR from the full-length GST-Arc construct; source: E. coli Rosetta 2, purified (glutathione resin, released with TEV protease; with or without 35% ammonium sulfate precipitation); not shown: GST, N-terminal, cleaved
[1]
  binding result: binds

B2: Arc S84,90E phosphomimetic mutant (natural protein, mouse, UniProt Q9WV31 1-396, looked up)
chain: MELDHMTTGGLHAYPAPRGGPAAKPNVILQIGKCRAEMLEHVRRTHRHLLTEVSKQVERELKGLHRSVGKLENNLDGYVPTGDEQRWKKEIKACLCRCQETIANLERWVKREMHVWREVFYRLERWADRLESMGGKYPVGSEPARHTVSVGVGGPEPYCQEADGYDYTVSPYAITPPPAAGELPEQESVEAQQYQSWGPGEDGQPSPGVDTQIFEDPREFLSHLEEYLRQVGGSEEYWLSQIQNHMNGPAKKWWEFKQGSVKNWVEFKKEFLQYSEGTLSREAIQRELELPQKQGEPLDQFLWRKRDLYQTLYVDAEEEEIIQYVVGTLQPKLKRFLRHPLPKTLEQLIQRGMEVQDGLEQAAEPSGTPLPTEDETEALTPALTSESVASDRTQPE
notes: Arc (Arg3.1), mouse, with serines 84 and 90 mutated to glutamic acid; source: E. coli Rosetta 2, purified (glutathione resin, released with TEV protease); not shown: GST, N-terminal, cleaved
[2]
  binding result: binds

— article PMC10815921, “Mimicking Protein Kinase C Phosphorylation Inhibits Arc/Arg3.1 Palmitoylation and Its Interaction with Nucleic Acids” (International Journal of Molecular Sciences, 2024)
